The record followed here is IntAct's records for PubMed 15644415.

First the molecules themselves.
B1: 1-phosphatidylinositol 4,5-bisphosphate phosphodiesterase gamma-2 (Homo sapiens), P16885 (parent)
chain: MSTTVNVDSLAEYEKSQIKRALELGTVMTVFSFRKSTPERRTVQVIMETRQVAWSKTADKIEGFLDIMEIKEIRPGKNSKDFERAKAVRQKEDCCFTILYGTQFVLSTLSLAADSKEDAVNWLSGLKILHQEAMNASTPTIIESWLRKQIYSVDQTRRNSISLRELKTILPLINFKVSSAKFLKDKFVEIGAHKDELSFEQFHLFYKKLMFEQQKSILDEFKKDSSVFILGNTDRPDASAVYLHDFQRFLIHEQQEHWAQDLNKVRERMTKFIDDTMRETAEPFLFVDEFLTYLFSRENSIWDEKYDAVDMQDMNNPLSHYWISSSHNTYLTGDQLRSESSPEAYIRCLRMGCRCIELDCWDGPDGKPVIYHGWTRTTKIKFDDVVQAIKDHAFVTSSFPVILSIEEHCSVEQQRHMAKAFKEVFGDLLLTKPTEASADQLPSPSQLREKIIIKHKKLGPRGDVDVNMEDKKDEHKQQGELYMWDSIDQKWTRHYCAIADAKLSFSDDIEQTMEEEVPQDIPPTELHFGEKWFHKKVEKRTSAEKLLQEYCMETGGKDGTFLVRESETFPNDYTLSFWRSGRVQHCRIRSTMEGGTLKYYLTDNLTFSSIYALIQHYRETHLRCAEFELRLTDPVPNPNPHESKPWYYDSLSRGEAEDMLMRIPRDGAFLIRKREGSDSYAITFRARGKVKHCRINRDGRHFVLGTSAYFESLVELVSYYEKHSLYRKMRLRYPVTPELLERYNMERDINSLYDVSRMYVDPSEINPSMPQRTVKALYDYKAKRSDELSFCRGALIHNVSKEPGGWWKGDYGTRIQQYFPSNYVEDISTADFEELEKQIIEDNPLGSLCRGILDLNTYNVVKAPQGKNQKSFVFILEPKQQGDPPVEFATDRVEELFEWFQSIREITWKIDTKENNMKYWEKNQSIAIELSDLVVYCKPTSKTKDNLENPDFREIRSFVETKADSIIRQKPVDLLKYNQKGLTRVYPKGQRVDSSNYDPFRLWLCGSQMVALNFQTADKYMQMNHALFSLNGRTGYVLQPESMRTEKYDPMPPESQRKILMTLTVKVLGARHLPKLGRSIACPFVEVEICGAEYDNNKFKTTVVNDNGLSPIWAPTQEKVTFEIYDPNLAFLRFVVYEEDMFSDPNFLAHATYPIKAVKSGFRSVPLKNGYSEDIELASLLVFCEMRPVLESEEELYSSCRQLRRRQEELNNQLFLYDTHQNLRNANRDALVKEFSVNENQLQLYQEKCNKRLREKRVSNSKFYS
partner: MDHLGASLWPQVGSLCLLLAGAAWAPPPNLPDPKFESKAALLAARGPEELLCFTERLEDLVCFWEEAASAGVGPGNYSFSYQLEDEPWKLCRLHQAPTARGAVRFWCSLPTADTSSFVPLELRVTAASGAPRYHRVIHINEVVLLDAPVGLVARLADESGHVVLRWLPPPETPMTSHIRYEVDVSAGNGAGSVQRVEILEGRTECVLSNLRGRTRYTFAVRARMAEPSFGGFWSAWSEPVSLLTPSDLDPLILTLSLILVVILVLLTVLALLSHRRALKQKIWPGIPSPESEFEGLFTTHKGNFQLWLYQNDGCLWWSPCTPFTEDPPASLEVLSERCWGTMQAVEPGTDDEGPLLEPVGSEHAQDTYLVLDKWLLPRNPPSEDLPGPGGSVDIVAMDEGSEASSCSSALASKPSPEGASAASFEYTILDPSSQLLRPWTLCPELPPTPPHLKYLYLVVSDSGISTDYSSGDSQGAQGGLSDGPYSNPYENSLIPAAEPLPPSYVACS
B2: Erythropoietin receptor (Homo sapiens), P19235 (parent)
chain: B1 partner
partner: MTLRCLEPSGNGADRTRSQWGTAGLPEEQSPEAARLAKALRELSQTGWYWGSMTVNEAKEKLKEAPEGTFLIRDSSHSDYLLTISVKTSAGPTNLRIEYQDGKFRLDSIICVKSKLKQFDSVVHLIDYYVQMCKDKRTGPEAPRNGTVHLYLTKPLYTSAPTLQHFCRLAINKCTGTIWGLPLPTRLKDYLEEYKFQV
B3: Erythropoietin receptor (Homo sapiens), P19235 (parent)
chain: B1 partner
partner: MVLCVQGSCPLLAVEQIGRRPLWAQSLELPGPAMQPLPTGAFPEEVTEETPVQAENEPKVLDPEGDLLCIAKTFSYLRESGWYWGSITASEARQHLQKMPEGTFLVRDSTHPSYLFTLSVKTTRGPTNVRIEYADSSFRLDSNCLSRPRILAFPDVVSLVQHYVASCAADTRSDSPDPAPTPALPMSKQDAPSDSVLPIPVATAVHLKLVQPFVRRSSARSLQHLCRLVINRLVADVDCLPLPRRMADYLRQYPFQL
B4: Erythropoietin receptor (Homo sapiens), P19235 (parent)
chain: B1 partner
partner: B1 chain

The variants in one experiment derive from B1. The settings on record: with epor_human EPOR.
In the case of K367F, the “effect of a mutation on the interaction” value is reported as “decreasing interaction”.

The next experiment covers variants of B2. The settings on record: with socs2_mouse Socs2, O35717.
Take MDHLGASLWPQVGSLCLLLAGAAWAPPPNLPDPKFESKAALLAARGPEELLCFTERLEDLVCFWEEAASAGVGPGNYSFSYQLEDEPWKLCRLHQAPTARGAVRFWCSLPTADTSSFVPLELRVTAASGAPRYHRVIHINEVVLLDAPVGLVARLADESGHVVLRWLPPPETPMTSHIRYEVDVSAGNGAGSVQRVEILEGRTECVLSNLRGRTRYTFAVRARMAEPSFGGFWSAWSEPVSLLTPSDLDPLILTLSLILVVILVLLTVLALLSHRRALKQKIWPGIPSPESEFEGLFTTHKGNFQLWLYQNDGCLWWSPCTPFTEDPPASLEVLSERCWGTMQAVEPGTDDEGPLLEPVGSEHAQDTYLVLDKWLLPRNPPSEDLPGPGGSVDIVAMDEGSEASSCSSALASKPSPEGASAASFEFTILDPSSQLLRPWTLCPELPPTPPHLKYLYLVVSDSGISTDYSSGDSQGAQGGLSDGPYSNPYENSLIPAAEPLPPSYVACS [Y426F]: the “effect of a mutation on the interaction” value is given as “decreasing interaction”.

Variants of B3 are the subject of a further experiment. Particulars: with cish_mouse Cish.
Take MDHLGASLWPQVGSLCLLLAGAAWAPPPNLPDPKFESKAALLAARGPEELLCFTERLEDLVCFWEEAASAGVGPGNYSFSYQLEDEPWKLCRLHQAPTARGAVRFWCSLPTADTSSFVPLELRVTAASGAPRYHRVIHINEVVLLDAPVGLVARLADESGHVVLRWLPPPETPMTSHIRYEVDVSAGNGAGSVQRVEILEGRTECVLSNLRGRTRYTFAVRARMAEPSFGGFWSAWSEPVSLLTPSDLDPLILTLSLILVVILVLLTVLALLSHRRALKQKIWPGIPSPESEFEGLFTTHKGNFQLWLYQNDGCLWWSPCTPFTEDPPASLEVLSERCWGTMQAVEPGTDDEGPLLEPVGSEHAQDTYLVLDKWLLPRNPPSEDLPGPGGSVDIVAMDEGSEASSCSSALASKPSPEGASAASFEFTILDPSSQLLRPWTLCPELPPTPPHLKYLYLVVSDSGISTDYSSGDSQGAQGGLSDGPYSNPYENSLIPAAEPLPPSYVACS [Y426F]: the “effect of a mutation on the interaction” value is on record as “decreasing interaction”.

The variants in a further experiment derive from B3. The settings on record: with cish_mouse Cish. This is another data set of the same source.
In the case of MDHLGASLWPQVGSLCLLLAGAAWAPPPNLPDPKFESKAALLAARGPEELLCFTERLEDLVCFWEEAASAGVGPGNYSFSYQLEDEPWKLCRLHQAPTARGAVRFWCSLPTADTSSFVPLELRVTAASGAPRYHRVIHINEVVLLDAPVGLVARLADESGHVVLRWLPPPETPMTSHIRYEVDVSAGNGAGSVQRVEILEGRTECVLSNLRGRTRYTFAVRARMAEPSFGGFWSAWSEPVSLLTPSDLDPLILTLSLILVVILVLLTVLALLSHRRALKQKIWPGIPSPESEFEGLFTTHKGNFQLWLYQNDGCLWWSPCTPFTEDPPASLEVLSERCWGTMQAVEPGTDDEGPLLEPVGSEHAQDTYLVLDKWLLPRNPPSEDLPGPGGSVDIVAMDEGSEASSCSSALASKPSPEGASAASFEYTILDPSSQLLRPWTLCPELPPTPPHLKFLYLVVSDSGISTDYSSGDSQGAQGGLSDGPYSNPYENSLIPAAEPLPPSYVACS [Y454F], the “effect of a mutation on the interaction” value is “decreasing interaction”.

The variants in the next experiment derive from B4. The settings on record: with plcg2_human PLCG2, P16885.
On to MDHLGASLWPQVGSLCLLLAGAAWAPPPNLPDPKFESKAALLAARGPEELLCFTERLEDLVCFWEEAASAGVGPGNYSFSYQLEDEPWKLCRLHQAPTARGAVRFWCSLPTADTSSFVPLELRVTAASGAPRYHRVIHINEVVLLDAPVGLVARLADESGHVVLRWLPPPETPMTSHIRYEVDVSAGNGAGSVQRVEILEGRTECVLSNLRGRTRYTFAVRARMAEPSFGGFWSAWSEPVSLLTPSDLDPLILTLSLILVVILVLLTVLALLSHRRALKQKIWPGIPSPESEFEGLFTTHKGNFQLWLYQNDGCLWWSPCTPFTEDPPASLEVLSERCWGTMQAVEPGTDDEGPLLEPVGSEHAQDTYLVLDKWLLPRNPPSEDLPGPGGSVDIVAMDEGSEASSCSSALASKPSPEGASAASFEYTILDPSSQLLRPWTLCPELPPTPPHLKYLYLVVSDSGISTDYSSGDSQGAQGGLSDGPYSNPYENSLIPAAEPLPPSFVACS [Y504F], for which the “effect of a mutation on the interaction” value is given as “decreasing interaction”.

As for MDHLGASLWPQVGSLCLLLAGAAWAPPPNLPDPKFESKAALLAARGPEELLCFTERLEDLVCFWEEAASAGVGPGNYSFSYQLEDEPWKLCRLHQAPTARGAVRFWCSLPTADTSSFVPLELRVTAASGAPRYHRVIHINEVVLLDAPVGLVARLADESGHVVLRWLPPPETPMTSHIRYEVDVSAGNGAGSVQRVEILEGRTECVLSNLRGRTRYTFAVRARMAEPSFGGFWSAWSEPVSLLTPSDLDPLILTLSLILVVILVLLTVLALLSHRRALKQKIWPGIPSPESEFEGLFTTHKGNFQLWLYQNDGCLWWSPCTPFTEDPPASLEVLSERCWGTMQAVEPGTDDEGPLLEPVGSEHAQDTYLVLDKWLLPRNPPSEDLPGPGGSVDIVAMDEGSEASSCSSALASKPSPEGASAASFEYTILDPSSQLLRPWTLCPELPPTPPHLKYLFLVVSDSGISTDYSSGDSQGAQGGLSDGPYSNPYENSLIPAAEPLPPSYVACS [Y456F], the “effect of a mutation on the interaction” value is given as “decreasing interaction”.
